Experiments:
[1] = target: Moniliophthora perniciosa necrosis- and ethylene-inducing protein 2 (MpNep2) (Moniliophthora perniciosa); assay: dynamic light scattering; monomer 120 uM and dimer 45 uM in 20 mM phosphate, 80 mM NaCl, pH 7.4, 25°C
[2] = target: Moniliophthora perniciosa necrosis- and ethylene-inducing protein 2 (MpNep2) (Moniliophthora perniciosa); assay: SEC; preparative Sephacryl S100 16/60 and analytical UFLC on Superdex 200 or 75, 0.7 mL/min; 20 mM phosphate pH 7.4, 80 mM NaCl; also at different ionic strengths and after 1 mM 2-mercaptoethanol

Moniliophthora perniciosa necrosis- and ethylene-inducing protein 2 (MpNep2) (natural protein)
stoichiometry N [1]: 2 | stoichiometry N [2]: 2
